The supplement of paper PMC12764529
± gives the half width of the 95% confidence interval.

Test: folding stability dG unfold from chymotrypsin proteolysis; higher = more stable
How it was run: (§1)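 Unfolding free energy was derived, per protease or combined, by relating Bayesian-fitted K50 values from sequencing counts to a sequence-predicted unfolded-state K50 and a shared folded-state K50. The underlying digests exposed cysteine-free mini-proteins under 80 residues, in a PA-tagged cDNA display construct, to trypsin and chymotrypsin at 11 threefold-diluted concentrations and to a no-protease condition. A filter kept only designs with AlphaFold2 dimer inter-PAE above 15.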

Compared with “SAGGSAGGSAGGMIKVTFKIPGKNETIEIDFDSEEELEEKFKELREKLGYNIEVVEIEESAGGSAGGSAGGS [r10_1087_JUSTAS]”, “SATFRLPNGKTISIMAPLPPGEMTPDQVISMARMIVRNIFPPGKKVEVKIEVEQYPNGMVHVKIPIKAESAG [r14_389_TrROS]” is lower in “folding stability dG unfold” value: 2.19 ± 0.12 kcal/mol for the first, 0.312 ± 0.28 kcal/mol for the second.

First: SAGGEVLIDTGPSPEEALYRAYEKGGEVPVIVLEPGSRVLHIFNVRFNPIPKKVEILDEYEIPILPELSAGG [r13_309_TrMRF]
Second: SAGGSADIARKIAKWLAEMYGIEEIKVKDIDPNGYIKVEIKMRMYDDGEPVEHKMDIEIPIPPGDLSAGGSA [r15_646_TrROS]
The “folding stability dG unfold” value of the first is lower: 1.46 ± 0.087 kcal/mol for the first, 2.3 ± 0.031 kcal/mol for the second.

Compared with “SAGGSAGGSAGGDVKVTVTVTVDPETGEPVVEVTLELPGDRAIRARFTPDGRLLSVEEVDSAGGSAGGSAGG [r7_454_TrMRF]”, “SAGGSAMPPGEPIGSFSFPFNNGGNLMISAYPGGEIKISWWGPDGRPHEHEFPVKVKPPPPEDEGKSAGGSA [r15_478_TrROS]” is lower in “folding stability dG unfold” value: 3.01 ± 0.16 kcal/mol for the first, 1.64 ± 0.07 kcal/mol for the second.

Compared with “SAGGSMTEEELEKKAKEIAEELEKKYKEENPNVEVKVTFEVIPEKGIIKITATSPKGKKLKEIIIPLLSAGG [r13_247_JUSTAS]”, “SAGGSASSMLSPSLYVTTITVKKPGGMTVTETVPGTPEEVERLIEELKKKGLEVEKVDVVPVSELVSAGGSA [r15_640_JUSTAS]” is lower in “folding stability dG unfold” value: 3.54 ± 0.23 kcal/mol for the first, 1.47 ± 0.034 kcal/mol for the second.

First: SAGGGSTVTTTTPDGTSVSTTTLPDGTVTATATYPDSTVSTTYDPATNTTTVTTTSGGTTVATTTVAASAGG [r13_748_JUSTAS]
Second: SAGGSASAPVPTSVSVSVSSDPASGLTTIPTTVTYNGKTFPMSVTTTPSGTVVTKVGGSTFTVPAASAGGSA [r15_507_JUSTAS]
The “folding stability dG unfold” value of the first is higher: 1.39 ± 0.031 kcal/mol for the first, -0.286 ± 0.11 kcal/mol for the second.

Going from “SAGGSAGGSAGGKKKIKVELEVKEDGTIRMKATTEDGEEIETEIKVEKVEVTVFLPPEKSAGGSAGGSAGGS [r10_237_TrROS_Hall]” to “SAGGSAGGSAGGGIVIEGDIESIEVEKNPDTDYYLVTVRFKSTDKPYTFVFKKDEKLDVSAGGSAGGSAGGS [r10_819_TrMRF]”, the “folding stability dG unfold” value rises from 1.18 ± 0.23 kcal/mol to 2.16 ± 0.21 kcal/mol.

Going from “SAGMPSFTTTSAPTEQLPELLAELATRPPNVSYTFPLPDPSRSLSLSVSADRITLTDPATGTTTTLPASAGG [r19_154_JUSTAS]” to “SAGGTVTIFIPGMSLDQIKKFIKFFRDNPDRPVTIHMPNGYMIEIDPKGKIDNIKVRRMPPMPEDDQSAGGS [r16_248_TrROS]”, the “folding stability dG unfold” value rises from -1.12 ± 0.51 kcal/mol to 2.93 ± 0.046 kcal/mol.

Compared with “SAGGSAGGSAGGMTVLETEVTTLPNGVVKTTTLYKDPSTGALHTVTEEVYVPLGETALLSAGGSAGGSAGGS [r10_72_JUSTAS]”, “SAGGGSVSVTPVKEIPGPGTTTLYRETHPDDRTVLITYNPATGTVTVTTYKGNTKTSTTTYNTPESLSAGGS [r16_457_JUSTAS]” is higher in “folding stability dG unfold” value: 0.15 ± 0.15 kcal/mol for the first, 1.53 ± 0.13 kcal/mol for the second.

Test: folding stability dG unfold (combined trypsin and chymotrypsin); higher = more stable
How it was run: as §1

Going from “SAGGELVLLIRVTPERIEIRLLPKEALEGLELEAPPGERLLLVELEPPPPEEEEREERRREEREELEESAGG [r13_74_TrROS_Hall]” to “SAGGMMEVEEREVEIELELEPGQSIEEALRELLGLEEGDEIVDVEVEVDPETRKVKIRVVILRPPEEESAGG [r13_828_TrROS_Hall]”, the “folding stability dG unfold” value rises from 1.32 ± 0.41 kcal/mol to 3.68 ± 0.52 kcal/mol.

Going from “SMPLTPAEVAEARARAAREAAEAAAGVPVTVRVTLSTPDRELTVTLPATESLAAVMKAHPDVTVEVEVEASA [r9_513_JUSTAS]” to “SAGGMIPEELIRKLFEDGKPVPLEQIVELIEKLTGRPVRLEEGEDKFRIVVLDPDTPELLDEIEIDFSAGGS [r8_105_TrMRF]”, the “folding stability dG unfold” value rises from 0.284 ± 0.059 kcal/mol to 1.55 ± 0.091 kcal/mol.

First: SAGGSAKITPGEEINFMFYNPENGQPFMVRIRIEKITVKRKPKDGKRKVEYKIKIEMSPGMKEITISAGGSA [r15_248_TrROS]
Second: SAGGSAGGSMIKVKITYPNGEEKTIEIEAETEEEAEEAAKKLAEELGKDVKVEVEKVSPEELKSAGGSAGGS [r12_385_TrROS_Hall]
The “folding stability dG unfold” value of the first is higher: 3.23 ± 0.3 kcal/mol for the first, 1.45 ± 0.073 kcal/mol for the second.

Going from “SAGMETVKIKVRVKVTVRERLPDGTVKTREFELTLEIEVEVEPGQTAEELAKKLAEEFNIEEVEIEKVPSAG [r5_994_TrROS_Hall]” to “SAGGSAGGLKEALKLAEELGAKPHVVKTKGNSEIVFLELKDGRKIRLLVENGKIKEIIPIPETPSAGGSAGG [r6_548_TrMRF]”, the “folding stability dG unfold” value falls from 3.29 ± 0.38 kcal/mol to 2.08 ± 0.17 kcal/mol.

Compared with “SAGGSAGGSVKVYTIEFLGDGKPYLLSIDDNGNFVIYVPNPKNIDAVKKAIPSNYKIVEIKPLSAGGSAGGS [r12_9_TrMRF]”, “SAGGSAGGSMSPEEAKKLAEELAKKLGLEKVEIVEIKVEVDEETNEIKVTIYIRGKDGKWYKLSAGGSAGGS [r12_508_TrROS_Hall]” is higher in “folding stability dG unfold” value: 1.52 ± 0.17 kcal/mol for the first, 3.96 ± 0.074 kcal/mol for the second.

Going from “SAGGSAGGKKKVLILPKGKKKEYTIEEAKKILKEKLPENAKVRLLETGKEYPVKDLLKKLGIDLSAGGSAGG [r6_936_TrMRF]” to “SAGGSAGGSPDLPELNIEPVSTLPDGSKIYRADVSPEAIARLKAANPAVTVEEHPDFLLLFLRESAGGSAGG [r6_395_JUSTAS]”, the “folding stability dG unfold” value rises from -0.207 ± 0.45 kcal/mol to 0.565 ± 0.04 kcal/mol.

Compared with “SAGGMNIVTYTLTIPPGRIEEVKEAIEALGIPVVKVELVEVLPGEGLAIVKIEVPNNVDPEKVKKALSSAGG [r13_725_JUSTAS]”, “SAGGSAGGSAGMVETVSTTTSVETGPDSTRYTTTTTTVLVTDSSGTPIATTTTTTTTVTASAGGSAGGSAGG [r17_139_JUSTAS]” is lower in “folding stability dG unfold” value: 4.09 ± 0.12 kcal/mol for the first, 0.986 ± 0.056 kcal/mol for the second.

First: SAGAPGEVTVTVVRRPRVETEEERRRRRAPPPPVVTLTLKVPPGWVVRRVAFNADGEIVSVELYRRDDLSAG [r5_750_TrROS_Hall]
Second: SAGGSAGGSAGGMIKVTFKIPGKNETIEIDFDSEEELEEKFKELREKLGYNIEVVEIEESAGGSAGGSAGGS [r10_1087_JUSTAS]
The “folding stability dG unfold” value of the first is higher: 2.54 ± 0.06 kcal/mol for the first, 1.92 ± 0.2 kcal/mol for the second.

Going from “SATFRLPNGKTISIMAPLPPGEMTPDQVISMARMIVRNIFPPGKKVEVKIEVEQYPNGMVHVKIPIKAESAG [r14_389_TrROS]” to “SAGGEVLIDTGPSPEEALYRAYEKGGEVPVIVLEPGSRVLHIFNVRFNPIPKKVEILDEYEIPILPELSAGG [r13_309_TrMRF]”, the “folding stability dG unfold” value rises from 0.406 ± 0.4 kcal/mol to 1.38 ± 0.11 kcal/mol.

Going from “SAGGSADIARKIAKWLAEMYGIEEIKVKDIDPNGYIKVEIKMRMYDDGEPVEHKMDIEIPIPPGDLSAGGSA [r15_646_TrROS]” to “SAGGSAGGSAGGDVKVTVTVTVDPETGEPVVEVTLELPGDRAIRARFTPDGRLLSVEEVDSAGGSAGGSAGG [r7_454_TrMRF]”, the “folding stability dG unfold” value rises from 1.98 ± 0.081 kcal/mol to 3.51 ± 0.21 kcal/mol.

First: SAGGSAMPPGEPIGSFSFPFNNGGNLMISAYPGGEIKISWWGPDGRPHEHEFPVKVKPPPPEDEGKSAGGSA [r15_478_TrROS]
Second: SAGGSMTEEELEKKAKEIAEELEKKYKEENPNVEVKVTFEVIPEKGIIKITATSPKGKKLKEIIIPLLSAGG [r13_247_JUSTAS]
The “folding stability dG unfold” value of the first is lower: 1.6 ± 0.19 kcal/mol for the first, 3.9 ± 0.31 kcal/mol for the second.

First: SAGGSASSMLSPSLYVTTITVKKPGGMTVTETVPGTPEEVERLIEELKKKGLEVEKVDVVPVSELVSAGGSA [r15_640_JUSTAS]
Second: SAGGGSTVTTTTPDGTSVSTTTLPDGTVTATATYPDSTVSTTYDPATNTTTVTTTSGGTTVATTTVAASAGG [r13_748_JUSTAS]
The “folding stability dG unfold” value of the first is lower: 1.66 ± 0.058 kcal/mol for the first, 1.89 ± 0.065 kcal/mol for the second.

Compared with “SAGGSASAPVPTSVSVSVSSDPASGLTTIPTTVTYNGKTFPMSVTTTPSGTVVTKVGGSTFTVPAASAGGSA [r15_507_JUSTAS]”, “SAGGSAGGSAGGKKKIKVELEVKEDGTIRMKATTEDGEEIETEIKVEKVEVTVFLPPEKSAGGSAGGSAGGS [r10_237_TrROS_Hall]” is higher in “folding stability dG unfold” value: -0.0606 ± 0.077 kcal/mol for the first, 1.55 ± 0.28 kcal/mol for the second.

Compared with “SAGGSAGGSAGGGIVIEGDIESIEVEKNPDTDYYLVTVRFKSTDKPYTFVFKKDEKLDVSAGGSAGGSAGGS [r10_819_TrMRF]”, “SAGMPSFTTTSAPTEQLPELLAELATRPPNVSYTFPLPDPSRSLSLSVSADRITLTDPATGTTTTLPASAGG [r19_154_JUSTAS]” is lower in “folding stability dG unfold” value: 1.77 ± 0.23 kcal/mol for the first, -0.779 ± 0.2 kcal/mol for the second.

First: SAGGTVTIFIPGMSLDQIKKFIKFFRDNPDRPVTIHMPNGYMIEIDPKGKIDNIKVRRMPPMPEDDQSAGGS [r16_248_TrROS]
Second: SAGGSAGGSAGGMTVLETEVTTLPNGVVKTTTLYKDPSTGALHTVTEEVYVPLGETALLSAGGSAGGSAGGS [r10_72_JUSTAS]
The “folding stability dG unfold” value of the first is higher: 2.53 ± 0.12 kcal/mol for the first, 0.523 ± 0.11 kcal/mol for the second.

With “SAGGGSVSVTPVKEIPGPGTTTLYRETHPDDRTVLITYNPATGTVTVTTYKGNTKTSTTTYNTPESLSAGGS [r16_457_JUSTAS]” the “folding stability dG unfold” value was 1.42 ± 0.098 kcal/mol.
